From article PMC10127204, “Unique Initiation and Termination Mechanisms Involved in the Biosynthesis of a Hybrid Polyketide-Nonribosomal Peptide Lyngbyapeptin B Produced by the Marine Cyanobacterium Moorena bouillonii” (ACS Chemical Biology, 2023) come the findings set out here.

Type in all cases: biochemical, Moorena bouillonii
Common to all, as to conditions: Fe2+ and molecular oxygen required

Substrate in series [1]: CC1=N[C@H](C(=O)O)CS1
Put plainly: kinetic analysis of 2-methylthiazole formation.

Substrate in series [2]: CC1=N[C@@H](C(=O)O)CS1
As to the kind of experiment: kinetic analysis of 2-methylthiazole formation.

Substrate in series [3]: O=C(O)[C@@H]1CSC(c2ccccc2)=N1
Put plainly: kinetic analysis of 2-phenylthiazole formation.

As a reminder, the Km is the concentration of substrate that gives half-maximal velocity.

B1: LynB7 (Moorena bouillonii) (protein)
chain: MVKTYEIIDADSHVLEPLDLWEKYLEPEFKHFAPKEDYKLEGEPILYKFNPSDFVESEAAKRAQEDPDIYKGGYDPKARVELMEQMGSDMTFLYPTIGLWMWSVDTMDSKLAGAFVRSYNNWLHDFCNYAPQKLKGIGAINQHDPEEMVPELQRIVEFGWKAVFIRPNPVKGRILSDPVYEPFWSECERLNVAVTVHEGTHSRLPTTGADRFDSRFALHACSHPMEQMMALLALIEGGVLERHPQLRVGFFESGCGWLPYWLWRLDEEYENLYYEVKDNVKMKPSEYFHRQCYTGFEVDEPYLAELIEYIGADKLLFGSDFPHMDHPNFIESVDETLALREKLPEDVIKKILHDNPLRYYGLT
As to B1, the Km was 2100 ± 200 µM in series [1], 3600 ± 700 µM in series [2] and 1500 ± 300 µM in series [3]. Moreover, the kcat in series [1] is given as 17 ± 0.7 s^–1; in series [2], 1.3 ± 0.1 s^–1; in series [3], 11 ± 0.5 s^–1.
